Source: PMC6910952 (Nature Communications, 2019)
No end group written: not given here.

T1: His6-yNpl4^113–580 (Saccharomyces cerevisiae, UniProt P33755 113-580)
T1 construct: codon-optimized synthetic cDNA; also called WT; WT #1; source: E. coli Rosetta (DE3), purified (Ni-NTA, Resource Q); also in lysate, mixed with cells expressing GST-yUfd1 for co-purification; not shown: His6, N-terminal, kept
T1 sequence (looked up): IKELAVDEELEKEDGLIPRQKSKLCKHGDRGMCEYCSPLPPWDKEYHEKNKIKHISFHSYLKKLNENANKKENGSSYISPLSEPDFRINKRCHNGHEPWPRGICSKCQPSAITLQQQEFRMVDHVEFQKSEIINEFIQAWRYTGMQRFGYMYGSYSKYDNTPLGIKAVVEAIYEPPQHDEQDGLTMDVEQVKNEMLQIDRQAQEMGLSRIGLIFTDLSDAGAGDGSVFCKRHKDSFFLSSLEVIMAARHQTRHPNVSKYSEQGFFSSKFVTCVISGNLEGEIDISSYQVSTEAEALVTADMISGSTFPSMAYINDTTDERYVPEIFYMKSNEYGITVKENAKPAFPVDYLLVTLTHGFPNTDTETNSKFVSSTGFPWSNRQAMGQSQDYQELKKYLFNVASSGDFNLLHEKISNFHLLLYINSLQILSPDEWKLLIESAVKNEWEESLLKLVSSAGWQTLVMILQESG


Assays:
His6-yNpl4^113–580 = biological target: T1, His6-yNpl4^113–580; assay: fluorescence polarisation; fluorescence anisotropy; 1 nM FlAsH-labeled His6-SUMO-yUfd1 peptide, His6-yNpl4^113–580 in two-fold dilution series; 25 °C; 50 mM Tris-HCl pH 8.0, 100 mM NaCl, 5 mM β-mercaptoethanol, 0.1 g/L BSA; details: both partners purified
M1-Ub4 = biological target: T2, M1-Ub4 (UniProt P0CG48 1-76; P0CG48 1-76; P0CG48 1-76; P0CG48 1-76); assay: SPR; Biacore T200, 25 °C; wild-type or mutant His6-yNpl4^113–580, yUfd1–His6-yNpl4^113–580 or His6-hNpl4 immobilized on a CM5 chip by amine coupling; Ub2 or Ub4 in two-fold dilution series injected 60 s at 10 μL per min in 10 mM HEPES-NaOH pH 7.5, 150 mM NaCl, 0.05% Tween-20, 0.5 g/L BSA; equilibrium Kd; details: both partners purified
T2 construct: ubiquitin (Ub), first unit; ubiquitin (Ub), second unit; ubiquitin (Ub), third unit; ubiquitin (Ub), fourth unit
T2 sequence (P0CG48 1-304, one chain of several): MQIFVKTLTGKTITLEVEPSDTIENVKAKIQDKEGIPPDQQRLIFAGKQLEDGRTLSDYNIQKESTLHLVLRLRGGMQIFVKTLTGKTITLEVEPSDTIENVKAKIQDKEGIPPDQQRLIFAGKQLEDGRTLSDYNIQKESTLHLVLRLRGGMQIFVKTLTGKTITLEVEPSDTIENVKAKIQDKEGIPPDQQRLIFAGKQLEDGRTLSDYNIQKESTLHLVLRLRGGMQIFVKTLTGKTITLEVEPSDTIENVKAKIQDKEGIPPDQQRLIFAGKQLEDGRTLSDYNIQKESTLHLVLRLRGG

Binder	Kd (His6-yNpl4^113–580) [µM]	Kd (M1-Ub4) [µM]
{His6-SUMO}-EPAKLDLPEGQLFAGFPMGWCCPGCC (peptide, UniProt P53044 288-305, looked up, cysteine pairing not given here; also: FlAsH label bound to CCPGCC motif, Ufd1 of Saccharomyces cerevisiae (yUfd1), residues 288-305 (NBM); also called yUfd1 F301A; source: E. coli Rosetta (DE3) (pCold-SUMO), purified (Ni-NTA, Resource Q), labeled with FlAsH-EDT2; not shown: His6, N-terminal, kept; SUMO, N-terminal, kept) [FlAsH-labeled His6-SUMO-yUfd1^288–305-GWCCPGCC F301A]	20.8	–
{His6-SUMO}-EPAKADLPEGQLFFGFPMGWCCPGCC (peptide, UniProt P53044 288-305, looked up, cysteine pairing not given here; also: FlAsH label bound to CCPGCC motif, Ufd1 of Saccharomyces cerevisiae (yUfd1), residues 288-305 (NBM); also called yUfd1 L292A; source: E. coli Rosetta (DE3) (pCold-SUMO), purified (Ni-NTA, Resource Q), labeled with FlAsH-EDT2; not shown: His6, N-terminal, kept; SUMO, N-terminal, kept) [FlAsH-labeled His6-SUMO-yUfd1^288–305-GWCCPGCC L292A]	5.29	–
His6-yNpl4^113–580 T571A (domain or fragment, Saccharomyces cerevisiae, UniProt P33755 113-580, looked up, source: E. coli Rosetta (DE3), purified (Ni-NTA, Resource Q); not shown: His6, N-terminal, kept) IKELAVDEELEKEDGLIPRQKSKLCKHGDRGMCEYCSPLPPWDKEYHEKNKIKHISFHSYLKKLNENANKKENGSSYISPLSEPDFRINKRCHNGHEPWPRGICSKCQPSAITLQQQEFRMVDHVEFQKSEIINEFIQAWRYTGMQRFGYMYGSYSKYDNTPLGIKAVVEAIYEPPQHDEQDGLTMDVEQVKNEMLQIDRQAQEMGLSRIGLIFTDLSDAGAGDGSVFCKRHKDSFFLSSLEVIMAARHQTRHPNVSKYSEQGFFSSKFVTCVISGNLEGEIDISSYQVSTEAEALVTADMISGSTFPSMAYINDTTDERYVPEIFYMKSNEYGITVKENAKPAFPVDYLLVTLTHGFPNTDTETNSKFVSSTGFPWSNRQAMGQSQDYQELKKYLFNVASSGDFNLLHEKISNFHLLLYINSLQILSPDEWKLLIESAVKNEWEESLLKLVSSAGWQALVMILQESG	–	923
His6-yNpl4^113–580 I575A (domain or fragment, Saccharomyces cerevisiae, UniProt P33755 113-580, looked up, source: E. coli Rosetta (DE3), purified (Ni-NTA, Resource Q); not shown: His6, N-terminal, kept) IKELAVDEELEKEDGLIPRQKSKLCKHGDRGMCEYCSPLPPWDKEYHEKNKIKHISFHSYLKKLNENANKKENGSSYISPLSEPDFRINKRCHNGHEPWPRGICSKCQPSAITLQQQEFRMVDHVEFQKSEIINEFIQAWRYTGMQRFGYMYGSYSKYDNTPLGIKAVVEAIYEPPQHDEQDGLTMDVEQVKNEMLQIDRQAQEMGLSRIGLIFTDLSDAGAGDGSVFCKRHKDSFFLSSLEVIMAARHQTRHPNVSKYSEQGFFSSKFVTCVISGNLEGEIDISSYQVSTEAEALVTADMISGSTFPSMAYINDTTDERYVPEIFYMKSNEYGITVKENAKPAFPVDYLLVTLTHGFPNTDTETNSKFVSSTGFPWSNRQAMGQSQDYQELKKYLFNVASSGDFNLLHEKISNFHLLLYINSLQILSPDEWKLLIESAVKNEWEESLLKLVSSAGWQTLVMALQESG	–	837
His6-yNpl4^113–580 M574A (domain or fragment, Saccharomyces cerevisiae, UniProt P33755 113-580, looked up, source: E. coli Rosetta (DE3), purified (Ni-NTA, Resource Q); not shown: His6, N-terminal, kept) IKELAVDEELEKEDGLIPRQKSKLCKHGDRGMCEYCSPLPPWDKEYHEKNKIKHISFHSYLKKLNENANKKENGSSYISPLSEPDFRINKRCHNGHEPWPRGICSKCQPSAITLQQQEFRMVDHVEFQKSEIINEFIQAWRYTGMQRFGYMYGSYSKYDNTPLGIKAVVEAIYEPPQHDEQDGLTMDVEQVKNEMLQIDRQAQEMGLSRIGLIFTDLSDAGAGDGSVFCKRHKDSFFLSSLEVIMAARHQTRHPNVSKYSEQGFFSSKFVTCVISGNLEGEIDISSYQVSTEAEALVTADMISGSTFPSMAYINDTTDERYVPEIFYMKSNEYGITVKENAKPAFPVDYLLVTLTHGFPNTDTETNSKFVSSTGFPWSNRQAMGQSQDYQELKKYLFNVASSGDFNLLHEKISNFHLLLYINSLQILSPDEWKLLIESAVKNEWEESLLKLVSSAGWQTLVAILQESG	–	291
His6-yNpl4^113–580 M574Q (domain or fragment, Saccharomyces cerevisiae, UniProt P33755 113-580, looked up, source: E. coli Rosetta (DE3), purified (Ni-NTA, Resource Q); not shown: His6, N-terminal, kept) IKELAVDEELEKEDGLIPRQKSKLCKHGDRGMCEYCSPLPPWDKEYHEKNKIKHISFHSYLKKLNENANKKENGSSYISPLSEPDFRINKRCHNGHEPWPRGICSKCQPSAITLQQQEFRMVDHVEFQKSEIINEFIQAWRYTGMQRFGYMYGSYSKYDNTPLGIKAVVEAIYEPPQHDEQDGLTMDVEQVKNEMLQIDRQAQEMGLSRIGLIFTDLSDAGAGDGSVFCKRHKDSFFLSSLEVIMAARHQTRHPNVSKYSEQGFFSSKFVTCVISGNLEGEIDISSYQVSTEAEALVTADMISGSTFPSMAYINDTTDERYVPEIFYMKSNEYGITVKENAKPAFPVDYLLVTLTHGFPNTDTETNSKFVSSTGFPWSNRQAMGQSQDYQELKKYLFNVASSGDFNLLHEKISNFHLLLYINSLQILSPDEWKLLIESAVKNEWEESLLKLVSSAGWQTLVQILQESG	–	634

Results, then the binder that gave them:

Kd (His6-yNpl4^113–580) [µM]	Kd (M1-Ub4) [µM]	Binder
–	101	His6-yNpl4^113–580 S498L (domain or fragment, Saccharomyces cerevisiae, UniProt P33755 113-580, looked up, source: E. coli Rosetta (DE3), purified (Ni-NTA, Resource Q); not shown: His6, N-terminal, kept) IKELAVDEELEKEDGLIPRQKSKLCKHGDRGMCEYCSPLPPWDKEYHEKNKIKHISFHSYLKKLNENANKKENGSSYISPLSEPDFRINKRCHNGHEPWPRGICSKCQPSAITLQQQEFRMVDHVEFQKSEIINEFIQAWRYTGMQRFGYMYGSYSKYDNTPLGIKAVVEAIYEPPQHDEQDGLTMDVEQVKNEMLQIDRQAQEMGLSRIGLIFTDLSDAGAGDGSVFCKRHKDSFFLSSLEVIMAARHQTRHPNVSKYSEQGFFSSKFVTCVISGNLEGEIDISSYQVSTEAEALVTADMISGSTFPSMAYINDTTDERYVPEIFYMKSNEYGITVKENAKPAFPVDYLLVTLTHGFPNTDTETNSKFVSSTGFPWSNRQAMGQLQDYQELKKYLFNVASSGDFNLLHEKISNFHLLLYINSLQILSPDEWKLLIESAVKNEWEESLLKLVSSAGWQTLVMILQESG
–	136	His6-yNpl4^113–580 S498R (domain or fragment, Saccharomyces cerevisiae, UniProt P33755 113-580, looked up, source: E. coli Rosetta (DE3), purified (Ni-NTA, Resource Q); not shown: His6, N-terminal, kept) IKELAVDEELEKEDGLIPRQKSKLCKHGDRGMCEYCSPLPPWDKEYHEKNKIKHISFHSYLKKLNENANKKENGSSYISPLSEPDFRINKRCHNGHEPWPRGICSKCQPSAITLQQQEFRMVDHVEFQKSEIINEFIQAWRYTGMQRFGYMYGSYSKYDNTPLGIKAVVEAIYEPPQHDEQDGLTMDVEQVKNEMLQIDRQAQEMGLSRIGLIFTDLSDAGAGDGSVFCKRHKDSFFLSSLEVIMAARHQTRHPNVSKYSEQGFFSSKFVTCVISGNLEGEIDISSYQVSTEAEALVTADMISGSTFPSMAYINDTTDERYVPEIFYMKSNEYGITVKENAKPAFPVDYLLVTLTHGFPNTDTETNSKFVSSTGFPWSNRQAMGQRQDYQELKKYLFNVASSGDFNLLHEKISNFHLLLYINSLQILSPDEWKLLIESAVKNEWEESLLKLVSSAGWQTLVMILQESG
–	84	His6-yNpl4^113–580 A494F (domain or fragment, Saccharomyces cerevisiae, UniProt P33755 113-580, looked up, source: E. coli Rosetta (DE3), purified (Ni-NTA, Resource Q); not shown: His6, N-terminal, kept) IKELAVDEELEKEDGLIPRQKSKLCKHGDRGMCEYCSPLPPWDKEYHEKNKIKHISFHSYLKKLNENANKKENGSSYISPLSEPDFRINKRCHNGHEPWPRGICSKCQPSAITLQQQEFRMVDHVEFQKSEIINEFIQAWRYTGMQRFGYMYGSYSKYDNTPLGIKAVVEAIYEPPQHDEQDGLTMDVEQVKNEMLQIDRQAQEMGLSRIGLIFTDLSDAGAGDGSVFCKRHKDSFFLSSLEVIMAARHQTRHPNVSKYSEQGFFSSKFVTCVISGNLEGEIDISSYQVSTEAEALVTADMISGSTFPSMAYINDTTDERYVPEIFYMKSNEYGITVKENAKPAFPVDYLLVTLTHGFPNTDTETNSKFVSSTGFPWSNRQFMGQSQDYQELKKYLFNVASSGDFNLLHEKISNFHLLLYINSLQILSPDEWKLLIESAVKNEWEESLLKLVSSAGWQTLVMILQESG
